B1: full-length His6-b-nexilin (natural protein)
chain: MNDVSQKAEILLSSSKPVPKSYVPKLGKGDVKDKFEAMQRAREERNQRRSRDEKQRRKEQYIREREWNRRKQEIKDMLASDEEEEPSKVEKAYVPKLTGTVKGKFDEMEKHRQEEQRKRTEEERKRRIEQDLLEKRKMQRELAKRAEQEGDDSLLITVVPAKSYRAAANRKDPEDLDREHRNGRVSQEEEKTRHEEECRALKEAKCLSLVMDDETEAKKESRFPGKLKSTFEELERQRQENRKKQAEEEARRRLEEERRAFEEARRNMVNEEDESQDTETVFKEYRPGKLRLSFEEIERQRREEEKRKAEEEARRRMEEEKKAFAEARRSMVLDDDSPEIYKAVSQESLTPGKLEINFEQLLRQKMEEERRRTEEERRQKLEMEKQEFEQLRQEMGKEEEENESFGLSREYEELIKLKRSGSIQAKNLKSKFEKIGQLSEKEVQKKIEEERAKRRAIDLEIKEREAENFHEDDDVDVKPAKKSESPFTHKVNMKARFEQMAKARQEEEQRRIEEQKLLRMQFEQKEIDAALQKKREDDEEEEGSIVNGSTTEDEEQTRSGAPWFKKPLRNTSVVDSEPVRFTVKVTGEPKPEVTWWFEGELLQDGEDYQYIERGETYCLYLPETFPEDGGEYMCKAVNSKGSAASTCILTIEMDDY
B2: full-length His6-s-nexilin (natural protein)
chain: MNDVSQKAEIKDMLASDEEEEPSKVEKAYVPKLTGTVKGKFDEMEKHRQEEQRKRTEEERKRRIEQDLLEKRKMQRELAKRAEQIEDINNTGTESASEEGDDSLLITVVPAKSYRAAANRKDPEDLDREHRNGRVSQEEEKTRHEEECRALKEAKCLSLVMDDETEAKKESRFPGKLKSTFEELERQRQENRKKQAEEEARRRLEEERRAFEEARRNMVNEEDESQDTETVFKEYRPGKLRLSFEEIERQRREEEKRKAEEEARRRMEEEKKAFAEARRSMVLDDDSPEIYKAVSQESLTPGKLEINFEQLLRQKMEEERRRTEEERRQKLEMEKQEFEQLRQEMGKEEEENESFGLSREYEELIKLKRSGSIQAKNLKSKFEKIGQLSEKEVQKKIEEERAKRRAIDLEIKEREAENFHEDDDVDVKPAKKSESPFTHKVNMKARFEQMAKARQEEEQRRIEEQKLLRMQFEQKEIDAALQKKREDDEEEEGSIVNGSTTEDEEQTRSGAPWFKKPLRNTSVVDSEPVRFTVKVTGEPKPEVTWWFEGELLQDGEDYQYIERGETYCLYLPETFPEDGGEYMCKAVNSKGSAASTCILTIEMDDY

Target: actin filament (F-actin) polymerized from G-actin purified from rabbit skeletal muscle (rabbit, UniProt P68135 1-377)
Assay: co-sedimentation

Binder | stoichiometry N
B1 | ~9 actin molecules per His6-b-nexilin molecule
B2 | ~10 actin molecules per His6-s-nexilin molecule
